According to PMC10208028 (Chemical Science, 2023):

B1: Cytochrome c (natural protein)
chain: not shown
modifications: covalently attached heme group
B2: 15N-labeled Cyt c with 104 amino acid residues (natural protein)
chain: not shown
modifications: 15N-labeled; covalently attached heme group

Key:
amyloid-β 42 [1] = biological target: T1, amyloid-β 42 (UniProt P05067 672-713); test: native MS
amyloid-β 42 [2] = biological target: T1, amyloid-β 42; test: NMR titration

Row | Binder | stoichiometry N (amyloid-β 42 [1]) | binding result (amyloid-β 42 [2])
1 | B1 | 1 Cyt c : Aβ42 | 
2 | B2 |  | binds
